# Measurements published in patent publication US20100143379A1 (priority 2005, published 2010).
# Assays:
# p56^lck = test: Tyrosine kinase phosphorylation in COS-7/M6 transformants and MEFs (immunoblot); type: cell-based; details: only in the cells expressing both CD74 and full-length CD44
# Protocol: Cells then were harvested and lysed in buffer containing 50 mM Hepes, pH7.5, 150 mM NaCl, 1.5 mM MgCl2, 1 mM EGTA, 1% Glycerol and 1% Triton X-100, and freshly added phosphatase and proteinase inhibitors (1 mM orthovanandate, 10 mM NaF, 10 μg/ml leupeptin, 25 μg/ml aprotinin and 50 μg/ml PMSF). For immunoblotting, 15-20 μg of cell lysate proteins were separated by 10% SDS-PAGE and transferred to PVDF Immobilon-P transfer membranes (Millipore). The blots were developed with specific primary antibodies that included a pair of anti-phospho-ERK-1/2 (sc-7383, Santa Cruz) and anti-(total) ERK-1/2 (sc-94, Santa Cruz) antibodies, a pair of anti-phospho-p56^lck (Cell Signaling) and anti-(total) p56^lck (sc-433, Santa Cruz) antibodies, or a pair of anti-phospho-Src and anti-(total) Src antibodies (Cell Signaling). The secondary antibodies included anti-mouse IgG or anti-rabbit IgG conjugated with horseradish peroxidase (Cell Signaling). The ECL detection reagents (Amersham) were used to visualize bands.
# Cell lysates were collected and analyzed by immunoblots using a pair of anti-phospho-PICA and anti-(total)-PKA antibodies, a pair of anti-phospho-PKC (all from Cell Signaling) and anti-(total)-PKC (Santa Cruz) antibodies, or a pair of anti-phospho-p56^lck (Cell Signaling) and anti-(total) p56^lck (sc-433, Santa Cruz) antibodies.
# p53 = test: Ser15-phosphorylated p53 content, macrophages; type: cell-based, mouse; details: during apoptosis induction
# Protocol: (§1) Apoptosis Studies. […] Cell lysates were collected, and caspase-3 activity analyzed using a colorimetric assay kit (R&D Systems). Cytoplasmic p53 content was analyzed as described previously (Mitchell et al. (2002). Proc Natl Acad Sci USA 99:345-350) by immunoblotting of mouse cytosolic fractions using a pair of anti-phospho-p53 (Ser15) (R&D Systems) and total anti-p53 antibodies (Cell Signaling); and for COS-7 cells, the anti-p53 (Ser15) and total anti-p53 antibodies (Cell Signaling). In vivo apoptosis studies followed the procedures of (Mitchell et al. (2002). Proc Natl Acad Sci USA 99:345-350), and were conducted after i.p injection of 15 mg/kg lipopolysaccharide (E. coli 0111:B4; Sigma). Mice were sacrificed 24 hrs after priming and the peritoneal macrophage cells collected and immediately analyzed for apoptosis by an ELISA that detects cytoplasmic oligonucleosomes (Roche Diagnostics). Primary macrophages also were immunostained by Alexa 488-conjugated, Annexin V (Invitrogen), and apoptotic cells enumerated by fluorescence microscopy.
# ERK-1/2 [1] = test: ERK-1/2 phosphorylation in murine embryonic fibroblasts and peritoneal macrophages; type: cell-based; details: wild-type, CD74-KO and CD44-KO cells
# Protocol: Whole cell lysates then were prepared and analyzed by Western blotting with specific anti-phospho-ERK-1/2 (p-ERK1/2) or anti-total ERK/1/2 antibodies. […] Peritoneal macrophages were stimulated for 10 mins (Mitchell et al. (1999). J Biol Chem 274:18100-6) and the lysates then analyzed by Western blotting. […] Recombinant, sCD74 was incubated with MN overnight in a 3:1 molar ratio prior to addition to cells for 10 mins. Epidermal growth factor (EGF) was used as a positive control for ERK-1/2 phosphorylation (Yamamoto et al. (2003). Develop Biol 260:512-521). Data shown are representative of three experiments.
# (§2) Signal Transduction Assays. […] The human CD74 ectodomain (CD74^73-232) was prepared recombinantly in soluble form (sCD74) as described previously (Leng et al. (2003). J Exp Med 197:1467-1476). […] Cells then were harvested and lysed in buffer containing 50 mM Hepes, pH7.5, 150 mM NaCl, 1.5 mM MgCl2, 1 mM EGTA, 1% Glycerol and 1% Triton X-100, and freshly added phosphatase and proteinase inhibitors (1 mM orthovanandate, 10 mM NaF, 10 μg/ml leupeptin, 25 μg/ml aprotinin and 50 μg/ml PMSF). For immunoblotting, 15-20 μg of cell lysate proteins were separated by 10% SDS-PAGE and transferred to PVDF Immobilon-P transfer membranes (Millipore). […]
# Src = test: Tyrosine kinase phosphorylation in COS-7/M6 transformants and MEFs (immunoblot); type: cell-based; details: COS-7 transformants and MEFs
# Excerpt: Two members of the non-receptor, protein tyrosine kinase family, p56^lck and c-Src (Src), may physically associate with the intracytoplasmic domain of CD44 (Elaimin I. Taher (1996). J. Biol. Chem. 271:2863-2867 and Bourguignon et al. (2001). J. Biol. Chem. 276:7327-7336), and either kinase may lead to downstream ERK1/2 phosphorylation via a Ras-Raf-MEK-dependent pathway (Ishida et al. (1998). Circ Res 82:7-12; Migliaccio et al. (2000). EMBO J. 19:5406-5417; and Mahabeleshwar et al. (2003). J. Biol. Chem. 278:52598-52612). […] The level of p56^lck phosphorylation appeared less in the MEFs than in the COS-7 cells, which may be attributed to the lower level of expression of the p56^lck kinase in cells of fibroblast lineage (Oikawa et al. (2001). Immunol. 104:162-167), or to a higher activation and coupling efficiency of CD44 when over-expressed in COS-7 cells.
# as §2, with “PMSF).” for “PMSF). For immunoblotting, 15-20 μg of cell lysate proteins were separated by 10% SDS-PAGE and transferred to PVDF Immobilon-P transfer membranes (Millipore).”
# primary macrophages = test: In vitro apoptosis, primary macrophages; type: cell-based, mouse; details: MIF 100 ng/ml; dependent on CD74 and CD44
# Excerpt: Mice and Primary Cells. Wild-type (BALB/c or C57/B16), CD74-KO, (Shachar et al. (1996). Science 274:106-108), CD44-KO (Teder et al, (2002). Science 296:155-158), and MIF-KO (Bozza et al. (1999). J Exp Med 189:341-346), mice were bred at the Yale Animal Resource Center under strict, pathogen-free conditions. The KO strains were in genetically pure BALB/c or C57/B16 backgrounds (each at generation ≧N10). Mouse embryonic fibroblasts (MEFs) were obtained from 2 week-old embryos as described (Fingerle-Rowson et al. (2003). Proc Natl Acad Sci USA 100:9354-9359). […]
# as §1, with “In vivo apoptosis studies followed the procedures of (Mitchell et al. (2002). Proc Natl Acad Sci USA 99:345-350), and were conducted after i.p injection of 15 mg/kg lipopolysaccharide (E. coli 0111:B4; Sigma).” left out
# ERK-1/2 [2] = test: MAP kinase phosphorylation in differentiating K562 progenitors (Western blot); type: cell-based, human; details: K562 in differentiation medium
# Protocol: (§3) MIF addition markedly affected these differentiation-associated, MAP kinase responses.
# (§4) Western Blot Analysis. Immunoblotting with antibodies directed against phospho-ERK1/2, total ERK1/2, phospho-JNK1/2, total JNK1/2, phospho-p38, and total p38 was performed according to the manufacturer's instructions (New England Biolabs, Beverly, Mass.). The secondary antibody was an anti-rabbit IgG conjugated to horseradish peroxidase and detection was by chemiluminescence according to the manufacture's instructions (Amersham Pharmacia Biotech, Piscataway, N.J.). For quantitation of signal intensity of phospho-specific kinase results, western blots were scanned using a UMAX, PowerLook IIII scanner and the images were analyzed using UN-SCAN-IT gel Automated Digitizing system software version 5.1 (Silk Scientific Corporation, USA). The ratio between phosphorylated to the total MAP kinase was determined and expressed as a fold-change for each lane (mean±S.E.M for three blots from independent cell cultures). The p values were calculated for each of the time course comparisons (4, 16, 96 hrs) of three different experiments (Student T-test, two-tailed).
# p38 = test: as above; type: cell-based, human; details: 16 hrs, p<0.01; 96 hrs, p<0.04
# Protocol: as §3, §4
molecule,measurement,setting,value
MIF: macrophage migration inhibitory factor; recombinant mouse or human MIF purified essentially free of endotoxin (protein) PMFIVNTNVPRASVPDGFLSELTQQLAQATGKPPQYIAVHVVPDQLMAFGGSSEPCALCSLHSIGKIGGAQNRSYSKLLCGLLAERLRISPDRVYINYYDMNAANVGWNNSTFA,p56^lck phosphorylation,p56^lck,phosphorylated by MIF treatment
same,cellular content of Ser15-phosphorylated p53,p53,diminution in the cellular content
same,ERK-1/2 phosphorylation,ERK-1/2 [1],induced ERK-1/2 phosphorylation only in wild-type cells
same,Src phosphorylation,Src,An increase in the phosphorylation of the Src kinase was not detected
same,protection from apoptosis,primary macrophages,almost complete
same,duration of ERK-1/2 phosphorylation,ERK-1/2 [2],at least 96 hrs
same,ERK-1/2 phosphorylation,ERK-1/2 [2]; 16 hrs,phosphorylation was high at 16 hrs
same,differentiation-associated changes in p38 MAP kinase phosphorylation,p38,reduced
